# Assay results published in patent publication US11419921B2, “Methods of treating neurological disorders” (EnClear Therapies, Inc., priority 2018, dated 2022).
# Legend:
# (GR)10 [1] = assay: (GR)10 digestion with immobilized proteases (NHS-activated agarose resin) in PBS; type: biochemical; conditions: normalized
# Protocol: (§1) Protease solutions were prepared at 2 mg/mL in sterile PBS with calcium, magnesium and 200 μL ([…]) were applied to 100 μL of pre-washed NHS-activated agarose resin in 0.8 mL centrifuge columns. Reactions were left 1.5 hour at room temperature with end-to-end mixing, after which resins were washed with 12 resin volumes of PBS. Unreacted sites were blocked with 500 μL of 1M ethanolamine for 15 minutes at room temperature and resins were further washed with 24 resin volumes. Resins were stored at 4 degrees in 500 μL of PBS containing 0.05% sodium azide as preservative.
# 110 μL of 50 μM (GR)10 dipeptide repeats prepared in PBS were added to each immobilized protease and incubated 5 minutes at room temperature with end-to-end mixing. Columns were spun down 1 minute at 1,000 Xg to recover digested GR dipeptides. Columns were washed with 110 μL of PBS to increase (GR)10 recovery. This procedure was repeated with 60 minutes digestion time. 100 μL of each samples were transferred to a new tube and 5 μL of 10% TFA followed by 300 μL of Dilution Solution were added. The reaction mixtures were analyzed by LC/MS to determine the concentration of GR repeats of different lengths.
# (GR)10 [2] = assay: (GR)10 digestion with immobilized proteases in human cerebrospinal fluid (CSF); type: biochemical; conditions: immobilized enzyme
# Protocol: as §1
# 200 μM of (GR)10 were diluted in human cerebrospinal fluid (CSF) and 400 μL were applied to each immobilized proteases. The reaction was incubated 5 minutes at room temperature with end-to-end mixing. Columns were spun down 1 minute at 1,000 Xg to recover digested GR dipeptides. Columns were washed with 12 resin volumes of PBS. The procedure was repeated with 60 minutes digestion time. 100 μL of each samples were transferred to a clean tube, flash-frozen and subsequently used for LC/MS quantification of GR repeats of different lengths. The remaining 300 μL of each samples were flash-frozen and used to assess neuron toxicity.
# (GR)10 was digested with exemplary immobilized enzymes as described above in the subsection titled “(GR)10 digestion with immobilized proteases in CSF” of Example 3. Clostripain experiments were conducted with and without DTT activation (no DTT during digestion). The results obtained after 5 and 60 minutes of reaction time are presented in Table 25 and shown in FIG. 5 (commercial and in-house immobilized trypsin), FIG. 6 (immobilized elastase, FIG. 7A (immobilized clostripain without DTT) and FIG. 7 (immobilized clostripain with 2.5 mM DTT).
# [3] = resin wash from 60 min reaction
molecule,measurement,setting,value
"Commercial Trypsin: commercial immobilized trypsin, presumably the ThermoFisher immobilized TPCK-trypsin of Example 2 (protein, UniProt P00760 24-246, looked up, TPCK-treated, immobilized on agarose resin) Serine protease 1: IVGGYTCGANTVPYQVSLNSGYHFCGGSLINSQWVVSAAHCYKSGIQVRLGEDNINVVEGNEQFISASKSIVHPSYNSNTLNNDIMLIKLKSAASLNSRVASISLPTSCASAGTQCLISGWGNTKSSGTSYPDVLKCLKAPILSDSSCKSAYPGQITSNMFCAGYLEGGKDSCQGDSGGPVVCSGKLQGIVSWGSGCAQKNKPGVYTKVCNYVSWIKQTIASN",(GR)1,(GR)10 [1]; Immobilized - 5 min reaction,301.2 µM
same,(GR)2,(GR)10 [1]; Immobilized - 5 min reaction,0.0 µM
same,(GR)3,(GR)10 [1]; Immobilized - 5 min reaction,0.0 µM
same,(GR)4,(GR)10 [1]; Immobilized - 5 min reaction,0.0 µM
same,(GR)5,(GR)10 [1]; Immobilized - 5 min reaction,0.0 µM
same,(GR)6,(GR)10 [1]; Immobilized - 5 min reaction,0.0 µM
same,(GR)8,(GR)10 [1]; Immobilized - 5 min reaction,0.0 µM
same,(GR)10,(GR)10 [1]; Immobilized - 5 min reaction,0.0 µM
same,(GR)1,(GR)10 [1]; immobilized - 60 min reaction,308.6 µM
same,(GR)2,(GR)10 [1]; immobilized - 60 min reaction,0.0 µM
same,(GR)3,(GR)10 [1]; immobilized - 60 min reaction,0.0 µM
same,(GR)4,(GR)10 [1]; immobilized - 60 min reaction,0.0 µM
same,(GR)5,(GR)10 [1]; immobilized - 60 min reaction,0.0 µM
same,(GR)6,(GR)10 [1]; immobilized - 60 min reaction,0.0 µM
same,(GR)8,(GR)10 [1]; immobilized - 60 min reaction,0.0 µM
same,(GR)10,(GR)10 [1]; immobilized - 60 min reaction,0.0 µM
same,(GR)1,(GR)10 [1]; resin wash from 5 min reaction,131.9 µM
same,(GR)2,(GR)10 [1]; resin wash from 5 min reaction,0.0 µM
same,(GR)3,(GR)10 [1]; resin wash from 5 min reaction,0.0 µM
same,(GR)4,(GR)10 [1]; resin wash from 5 min reaction,0.0 µM
same,(GR)5,(GR)10 [1]; resin wash from 5 min reaction,0.0 µM
same,(GR)6,(GR)10 [1]; resin wash from 5 min reaction,0.0 µM
same,(GR)8,(GR)10 [1]; resin wash from 5 min reaction,0.0 µM
same,(GR)10,(GR)10 [1]; resin wash from 5 min reaction,0.0 µM
same,(GR)1,(GR)10 [1]; [3],145.7 µM
same,(GR)2,(GR)10 [1]; [3],0.0 µM
same,(GR)3,(GR)10 [1]; [3],0.0 µM
same,(GR)4,(GR)10 [1]; [3],0.0 µM
same,(GR)5,(GR)10 [1]; [3],0.0 µM
same,(GR)6,(GR)10 [1]; [3],0.0 µM
same,(GR)8,(GR)10 [1]; [3],0.0 µM
same,(GR)10,(GR)10 [1]; [3],0.0 µM
same,(GR)1 (normalized uM),(GR)10 [2]; 5 min reaction,1117.3 µM
same,(GR)2 (normalized uM),(GR)10 [2]; 5 min reaction,0.0 µM
same,(GR)3 (normalized uM),(GR)10 [2]; 5 min reaction,0.0 µM
same,(GR)4 (normalized uM),(GR)10 [2]; 5 min reaction,0.0 µM
same,(GR)5 (normalized uM),(GR)10 [2]; 5 min reaction,0.0 µM
same,(GR)6 (normalized uM),(GR)10 [2]; 5 min reaction,0.0 µM
same,(GR)8 (normalized uM),(GR)10 [2]; 5 min reaction,0.0 µM
same,(GR)10 (normalized uM),(GR)10 [2]; 5 min reaction,0.0 µM
same,(GR)1 (normalized uM),(GR)10 [2]; 60 min reaction,1197.4 µM
same,(GR)2 (normalized uM),(GR)10 [2]; 60 min reaction,0.0 µM
same,(GR)3 (normalized uM),(GR)10 [2]; 60 min reaction,0.0 µM
same,(GR)4 (normalized uM),(GR)10 [2]; 60 min reaction,0.0 µM
same,(GR)5 (normalized uM),(GR)10 [2]; 60 min reaction,0.0 µM
same,(GR)6 (normalized uM),(GR)10 [2]; 60 min reaction,0.0 µM
same,(GR)8 (normalized uM),(GR)10 [2]; 60 min reaction,0.0 µM
same,(GR)10 (normalized uM),(GR)10 [2]; 60 min reaction,0.0 µM
